The target of the assay is HA-SFPQ (human) (UniProt P23246). Description: co-IP.
Sequence of HA-SFPQ (human) (P23246 whole entry): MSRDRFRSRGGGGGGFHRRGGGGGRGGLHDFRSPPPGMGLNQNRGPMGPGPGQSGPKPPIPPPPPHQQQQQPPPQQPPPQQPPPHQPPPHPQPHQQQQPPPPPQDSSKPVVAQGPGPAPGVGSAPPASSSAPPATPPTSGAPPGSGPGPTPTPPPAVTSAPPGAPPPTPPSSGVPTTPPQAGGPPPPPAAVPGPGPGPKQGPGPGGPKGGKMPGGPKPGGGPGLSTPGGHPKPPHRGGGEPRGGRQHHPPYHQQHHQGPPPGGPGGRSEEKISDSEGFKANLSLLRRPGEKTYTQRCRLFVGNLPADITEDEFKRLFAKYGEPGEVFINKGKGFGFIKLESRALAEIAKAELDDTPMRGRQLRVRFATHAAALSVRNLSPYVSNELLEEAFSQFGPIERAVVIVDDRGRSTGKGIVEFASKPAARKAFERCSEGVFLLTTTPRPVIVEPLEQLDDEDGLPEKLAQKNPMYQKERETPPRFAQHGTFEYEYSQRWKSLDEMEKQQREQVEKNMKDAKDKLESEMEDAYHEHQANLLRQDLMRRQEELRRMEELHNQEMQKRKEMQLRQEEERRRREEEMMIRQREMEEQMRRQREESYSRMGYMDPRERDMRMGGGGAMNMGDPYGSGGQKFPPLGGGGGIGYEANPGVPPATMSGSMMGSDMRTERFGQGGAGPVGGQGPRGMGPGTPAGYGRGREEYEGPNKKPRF

Sequence of Myc-KLC1 ΔTail (domain or fragment) (O88447 whole entry, stated change not applied, the tested form may be a part): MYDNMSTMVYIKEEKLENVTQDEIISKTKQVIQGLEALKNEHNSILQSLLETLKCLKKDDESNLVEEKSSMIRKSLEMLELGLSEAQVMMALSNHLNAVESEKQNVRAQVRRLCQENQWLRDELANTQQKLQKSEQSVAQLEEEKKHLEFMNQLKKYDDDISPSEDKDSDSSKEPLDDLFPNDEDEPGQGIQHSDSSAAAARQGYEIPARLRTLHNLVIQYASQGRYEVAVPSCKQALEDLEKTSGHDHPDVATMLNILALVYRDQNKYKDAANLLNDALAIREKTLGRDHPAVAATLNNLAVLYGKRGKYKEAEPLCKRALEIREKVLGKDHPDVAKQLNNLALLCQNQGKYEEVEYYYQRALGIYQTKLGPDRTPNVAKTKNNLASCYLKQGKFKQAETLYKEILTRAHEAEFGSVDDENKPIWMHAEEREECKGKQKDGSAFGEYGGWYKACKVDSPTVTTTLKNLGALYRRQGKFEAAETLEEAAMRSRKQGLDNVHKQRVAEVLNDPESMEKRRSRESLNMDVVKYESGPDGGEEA

On to Myc-KLC1 ΔTail (domain or fragment), for which the reduction of binding against WT KLC1 was 50%.

Source of the values: publication doi:10.1101/2020.02.02.931204.
